Biological target: CD38 (human) (UniProt P28907)
Assay: cell-based or functional assay

For daratumumab (antibody), the daratumumab-induced fratricide of expanded NK cells (1 µg/mL daratumumab, 4 h, PI flow cytometry) (times lower (g-NK vs cNK)) was 13 and the g-NK cell-mediated cytotoxicity against daratumumab-treated MM cell lines, correlation with CD38 expression was 0.92 R^2.
